Results taken from paper PMC6623548, “Targeting Mannitol Metabolism as an Alternative Antimicrobial Strategy Based on the Structure-Function Study of Mannitol-1-Phosphate Dehydrogenase in Staphylococcus aureus” (mBio, 2019).

Key:
[1] = target: T1, mannitol-1-phosphate dehydrogenase (SaM1PDH) (Staphylococcus aureus, UniProt Q2FEX4); assay: F6P reductase activity, NADH absorbance, Lineweaver-Burk kinetics; format: biochemical
T1 construct: gene mtlD

[2] = tested on: O=P(O)(O)OC[C@@H](O)[C@@H](O)[C@H](O)[C@H](O)CO; assay: purified protein; conditions: NAD+ active site; phosphate moiety at Arg287 and Arg294 (docking, supported by mutants)
[3] = tested on: O=C(CO)[C@@H](O)[C@H](O)[C@H](O)COP(=O)(O)O; assay: purified protein; conditions: NADH active site; phosphate moiety at Arg287 and Arg294 (docking, supported by mutants)

Row | Compound | Ki [1] [µM] | Km [2] [µM] | Km [3] [µM]
1 | Cc1c(O)c(O)cc2c1CC=C1[C@@]2(C)CC[C@@]2(C)[C@@H]3C[C@](C)(C(=O)O)CC[C@]3(C)CC[C@]12C [DHCL, dihydrocelastrol] | 4 |  | 
2 | mannitol-1-phosphate dehydrogenase (SaM1PDH) (Staphylococcus aureus subsp. aureus USA300) |  | 188 | 88.6
